Measurements from PMC4598101, “Growth of Chitinophaga pinensis on Plant Cell Wall Glycans and Characterisation of a Glycoside Hydrolase Family 27 β-L-Arabinopyranosidase Implicated in Arabinogalactan Utilisation” (PLoS ONE, 2015).

Tests used:
[1] = substrate: O=[N+]([O-])c1ccc(O[C@H]2OC[C@H](O)[C@H](O)[C@H]2O)cc1; experiment: continuous pNP release, spectrophotometer; assay type: biochemical, Chitinophaga pinensis; details: 50 mM sodium citrate pH 5.0, 30 °C
Excerpt: (§1) continuous pNP release, spectrophotometer on CpArap27 (Cpin_5740 gene product)

[2] = substrate: O=[N+]([O-])c1ccc(O[C@H]2O[C@H](CO)[C@H](O)[C@H](O)[C@H]2O)cc1; experiment: continuous pNP release, spectrophotometer; assay type: biochemical, Chitinophaga pinensis; details: 50 mM sodium citrate pH 5.0, 30 °C
Excerpt: as §1

| Protein | Km [1] [mM] | kcat [1] [s⁻¹] | kcat/Km [1] [M⁻¹ s⁻¹] | Km [2] [mM] | kcat [2] [s⁻¹] | kcat/Km [2] [M⁻¹ s⁻¹] |
| --- | --- | --- | --- | --- | --- | --- |
| CpArap27 (Cpin_5740 gene product) (Chitinophaga pinensis DSM 2588) (protein, ~48 kDa; monomer by SEC) AQQKKDFHSWAPTPPMGWNSWDCYGPTVTEAEVKANADYMASHLKSSGWQYIIVDIRWYVANDKSHGYNETDPAYNIDAYGRFQPAVNRFPSAANGKGFKPLADYIHSKGLKFGIHIMRGVPVVAVNKKLPVKGTNVTAADIYSKQDQCKWLHDMYTIVPDKTGAQEYYNSLFDMYAAWGLDFVKVDDLSAPIYFTEEIEMIRKAITRTGRKILLSTSPGETPIAQGAHVQQHANMWRTVDDFWDNWPHLKDHFEVFDRWNKWRTTGAWPDGDMLPLGHIGIRAERGQPRMTSFTKDEQYTLMTLWTIFRSPLMFGGNLPDNDPFTLSLLTNKQVLQVLNNSSNNRPVFNDKDKAAWTADMPGKSAKYLAVFNKADKDAAAVNVDLSEIGIKGSCTITDLWTGKVLGKFTGSFAPQINPHGAGLYKVTP | 12.9 ± 3.27 | 32.3 ± 3.58 | 2500 | – | – | – |
| CpArap27 (Cpin_5740 gene product) (Chitinophaga pinensis DSM 2588; I73E) (protein, ~48 kDa; monomer by SEC) AQQKKDFHSWAPTPPMGWNSWDCYGPTVTEAEVKANADYMASHLKSSGWQYIIVDERWYVANDKSHGYNETDPAYNIDAYGRFQPAVNRFPSAANGKGFKPLADYIHSKGLKFGIHIMRGVPVVAVNKKLPVKGTNVTAADIYSKQDQCKWLHDMYTIVPDKTGAQEYYNSLFDMYAAWGLDFVKVDDLSAPIYFTEEIEMIRKAITRTGRKILLSTSPGETPIAQGAHVQQHANMWRTVDDFWDNWPHLKDHFEVFDRWNKWRTTGAWPDGDMLPLGHIGIRAERGQPRMTSFTKDEQYTLMTLWTIFRSPLMFGGNLPDNDPFTLSLLTNKQVLQVLNNSSNNRPVFNDKDKAAWTADMPGKSAKYLAVFNKADKDAAAVNVDLSEIGIKGSCTITDLWTGKVLGKFTGSFAPQINPHGAGLYKVTP | 6.56 ± 3.39 | 0.528 ± 0.115 | 80.5 | 35.6 ± 15.2 | 0.105 ± 0.0518 | 2.95 |
| CpArap27 (Cpin_5740 gene product) (Chitinophaga pinensis DSM 2588; I73D) (protein, ~48 kDa; monomer by SEC) AQQKKDFHSWAPTPPMGWNSWDCYGPTVTEAEVKANADYMASHLKSSGWQYIIVDDRWYVANDKSHGYNETDPAYNIDAYGRFQPAVNRFPSAANGKGFKPLADYIHSKGLKFGIHIMRGVPVVAVNKKLPVKGTNVTAADIYSKQDQCKWLHDMYTIVPDKTGAQEYYNSLFDMYAAWGLDFVKVDDLSAPIYFTEEIEMIRKAITRTGRKILLSTSPGETPIAQGAHVQQHANMWRTVDDFWDNWPHLKDHFEVFDRWNKWRTTGAWPDGDMLPLGHIGIRAERGQPRMTSFTKDEQYTLMTLWTIFRSPLMFGGNLPDNDPFTLSLLTNKQVLQVLNNSSNNRPVFNDKDKAAWTADMPGKSAKYLAVFNKADKDAAAVNVDLSEIGIKGSCTITDLWTGKVLGKFTGSFAPQINPHGAGLYKVTP | 8.63 ± 2.14 | 0.00718 ± 0.000775 | 0.832 | 35.3 ± 11.9 | – | 0.00585 |
| CpArap27 (Cpin_5740 gene product) (Chitinophaga pinensis DSM 2588; I73C) (protein, ~48 kDa; monomer by SEC) AQQKKDFHSWAPTPPMGWNSWDCYGPTVTEAEVKANADYMASHLKSSGWQYIIVDCRWYVANDKSHGYNETDPAYNIDAYGRFQPAVNRFPSAANGKGFKPLADYIHSKGLKFGIHIMRGVPVVAVNKKLPVKGTNVTAADIYSKQDQCKWLHDMYTIVPDKTGAQEYYNSLFDMYAAWGLDFVKVDDLSAPIYFTEEIEMIRKAITRTGRKILLSTSPGETPIAQGAHVQQHANMWRTVDDFWDNWPHLKDHFEVFDRWNKWRTTGAWPDGDMLPLGHIGIRAERGQPRMTSFTKDEQYTLMTLWTIFRSPLMFGGNLPDNDPFTLSLLTNKQVLQVLNNSSNNRPVFNDKDKAAWTADMPGKSAKYLAVFNKADKDAAAVNVDLSEIGIKGSCTITDLWTGKVLGKFTGSFAPQINPHGAGLYKVTP | 21.5 ± 10.4 | 0.403 ± 0.119 | 18.8 | – | – | – |
